Kd and KD ratio data for 8 molecules are collected here from patent US20230091175A1 (SYSMEX, published 2023).

Experiment [1] addresses T1, human IL6 protein, His and GST tags (active) (GTX00094-pro: GeneTex, Inc.) (human, UniProt P05231 30-212, limits assumed).
T1 construct: Bought reagent; not shown: His and GST tags
Briefly: SPR (Biacore 8K), antigen immobilized on CM4 chip, antibody as analyte. The method, then: (§1) (4.1) For anti-IL-6 antibody, anti-IL-8 antibody, and anti-IL-12 antibody Affinity of the original antibodies and variants was measured using Biacore (registered trademark) 8K (Cytiva). As antigens, human IL6 protein, His and GST tags (active) (GTX00094-pro: GeneTex, Inc.), interleukin 8 (CXCL8) (100-175: Shenandoah Biotechnology, Inc.), and human IL 12 protein (Recombinant His, C-terminus) (aa23-328) (LS-G134297-50: LSBio, Inc.) were used. The antigen was immobilized to a sensor chip for Biacore (registered trademark) Series S Sensor Chip CM4 (GE Healthcare). Each antibody solution obtained in the above (3.2) was diluted to prepare an antibody solution for measurement. The concentration of each antibody in the antibody solution for measurement was as follows. In the solutions of the anti-IL-6 antibody (58-1) and its R3, R4 and R5 variants, the concentration was 100 nM, 50 nM, 25 nM, 12.5 nM and 6.25 nM. In the solution of the anti-IL-6 antibody (44-15), the concentration was 100 nM, 50 nM, 25 nM, 12.5 nM and 6.25 nM, and in the solutions of its R3, R4 and R5 variants, the concentration was 50 nM, 25 nM, 12.5 nM, 6.25 nM and 3.13 nM. In the solutions of the anti-IL-8 antibody (166-1) and its R3, R4 and R5 variants, the concentration was 100 nM, 50 nM, 25 nM, 12.5 nM and 6.25 nM. In the anti-IL-8 antibody (146-1) solution, the concentration was 100 nM, 50 nM, 25 nM, 12.5 nM and 6.25 nM, in the solution of its R3 variant, the concentration was 50 nM, 25 nM, 12.5 nM, 6.25 nM and 3.13 nM, and in the solutions of its R4 and R5 variants, the concentration was 25 nM, 12.5 nM, 6.25 nM, 3.13 nM and 1.56 nM. In the anti-IL-12 antibody solution, the concentration was 50 nM, 25 nM, 12.5 nM, 6.25 nM and 3.13 nM, in the solution of its R3 variant, the concentration was 25 nM, 12.5 nM, 6.25 nM, 3.13 nM and 1.56 nM, and in the solution of its R4 variant, the concentration was 12.5 nM, 6.25 nM, 3.13 nM, 1.56 nM and 0.78 nM.
(§2) The antibody solutions for measurement at each concentration were delivered to Biacore (registered trademark) 8K (Cytiva) (association time of 120 seconds and dissociation time of 1200 seconds). Measurement data was analyzed using Biacore (registered trademark) Evaluation software, and the data on the affinity of each antibody for an antigen was obtained.
On the technique in general: Surface plasmon resonance follows binding to a sensor surface in real time, without labels.

Experiment [2] addresses T1, human IL6 protein, His and GST tags …. Briefly: SPR (Biacore 8K); affinity ratio with the original antibody as 1.0. The method, then:
as §1, §2

Experiment [3] deals with T2, interleukin 8 (CXCL8) (100-175: Shenandoah Biotechnology, Inc.) (UniProt P10145 28-99).
T2 construct: the antibodies tested are mouse anti-human IL-8 antibodies; also called IL-8
T2 sequence (looked up): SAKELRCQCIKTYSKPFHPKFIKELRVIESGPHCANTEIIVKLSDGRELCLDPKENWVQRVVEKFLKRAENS
Briefly: SPR (Biacore 8K), antigen immobilized on CM4 chip, antibody as analyte. The method, then: as §1, §2

The target of experiment [4] is T2, interleukin 8 (CXCL8) (100-175: …). The experiment is described as follows: SPR (Biacore 8K); affinity ratio with the original antibody as 1.0. Here is the method: as §1, §2

B1: mouse anti-human IL-6 antibody (clone 44-15), original (unmodified) (Fab, V domains shown, not shown: a dimerising Fc or GST)
VH: DVQLQESGPGLVKPSQTVSLTCTVTGISITTGNYRWSWIRQFPGNKLEWIGYIYYSGAITYNPSLTSRTTITRDTSMNQFFLEMISLTAEDTATYYCARDRYDYAVDFWGQGTSVTVSS
VL: DIQMTQSPASLSASVGETVTITCRSSENIYSFLTWFQQRQGKSPHLLVYYANTLAEGVPSRFSGSGSGTQFSLQINSLQPEDFGTYYCQHHYGTPWTFGGGTRLEIKR
notes: Fab; the light entry holds only the variable domain; a His tag is implied by Ni-NTA purification but not described; also called Anti-IL-6 antibody (clone 44-15)
The Kd is the equilibrium constant for the complex coming apart. Take B1: in experiment [1], the affinity, expressed as Kd, was 20.4 nM. In addition, the KD ratio in experiment [2] is 1.

B2: mouse anti-human IL-8 antibody (clone 146-1), original (unmodified) (Fab, V domains shown, not shown: a dimerising Fc or GST)
VH: EVQLVESGGGLVKPGGSLKLSCAASGFTFSSYAMSWVRQTPEKRLEWVATISNGGSYTYYPDSLKGRFTISRDNAKNTLYLQMSSLRSEDTAIYYCARGITGGVYFDYWGQGTTLTVSS
VL: DIQMTQSPASLSASVGETVTITCRASENIYSYLAWYQQKQGKSPHLLVYDAETLAEGVPSRFSGSGSGTQFSLKINSLQPEDFGSYYCQHHYGTPWTFGGGTKLEIKR
notes: Fab; the light entry holds only the variable domain; a His tag is implied by Ni-NTA purification but not described; also called Anti-IL-8 antibody (clone 146-1)
Consider B2, for which, in experiment [3], binding was put at a Kd of 15.3 nM. Also, the KD ratio in experiment [4] stood at 1.

B3: R5 variant of anti-IL-6 antibody (clone 44-15) (Fab, V domains shown, not shown: a dimerising Fc or GST)
VH: DVQLQESGPGLVKPSQTVSLTCTVTGISITTGNYRWSWIRQFPGNKLEWIGYIYYSGAITYNPSLTSRTTITRDTSMNQFFLEMISLTAEDTATYYCARDRYDYAVDFWGQGTSVTVSS
VL: DIQMTQSPASLSASVGETVTITCRSSENIYSFLTWFQQRQGKSPHLLVYYANTLAEGVPSRFRGRGRGTRFRLQINSLQPEDFGTYYCQHHYGTPWTFGGGTRLEIKR
notes: Light chain positions 63, 65, 67, 70, 72 (Chothia) changed to Arg; Fab
With B3, the Kd in experiment [1] was found to be 4.4 nM. Besides, the KD ratio in experiment [2] was 4.6.

B4: R3 variant of anti-IL-6 antibody (clone 44-15) (Fab, V domains shown, not shown: a dimerising Fc or GST)
VH: DVQLQESGPGLVKPSQTVSLTCTVTGISITTGNYRWSWIRQFPGNKLEWIGYIYYSGAITYNPSLTSRTTITRDTSMNQFFLEMISLTAEDTATYYCARDRYDYAVDFWGQGTSVTVSS
VL: DIQMTQSPASLSASVGETVTITCRSSENIYSFLTWFQQRQGKSPHLLVYYANTLAEGVPSRFRGRGRGTQFSLQINSLQPEDFGTYYCQHHYGTPWTFGGGTRLEIKR
notes: Light chain positions 63, 65, 67 (Chothia) changed to Arg; Fab
As for B4, the Kd in experiment [1] stood at 7.16 nM. In addition, the KD ratio in experiment [2] amounted to 2.9.

B5: R3 variant of anti-IL-8 antibody (clone 146-1) (Fab, V domains shown, not shown: a dimerising Fc or GST)
VH: EVQLVESGGGLVKPGGSLKLSCAASGFTFSSYAMSWVRQTPEKRLEWVATISNGGSYTYYPDSLKGRFTISRDNAKNTLYLQMSSLRSEDTAIYYCARGITGGVYFDYWGQGTTLTVSS
VL: DIQMTQSPASLSASVGETVTITCRASENIYSYLAWYQQKQGKSPHLLVYDAETLAEGVPSRFRGRGRGTQFSLKINSLQPEDFGSYYCQHHYGTPWTFGGGTKLEIKR
notes: as for B4
Take B5: the Kd in experiment [3] is 5.8 nM. Further, in experiment [4], the KD ratio is 2.6.

B6: R5 variant of anti-IL-8 antibody (clone 146-1) (Fab, V domains shown, not shown: a dimerising Fc or GST)
VH: EVQLVESGGGLVKPGGSLKLSCAASGFTFSSYAMSWVRQTPEKRLEWVATISNGGSYTYYPDSLKGRFTISRDNAKNTLYLQMSSLRSEDTAIYYCARGITGGVYFDYWGQGTTLTVSS
VL: DIQMTQSPASLSASVGETVTITCRASENIYSYLAWYQQKQGKSPHLLVYDAETLAEGVPSRFRGRGRGTRFRLKINSLQPEDFGSYYCQHHYGTPWTFGGGTKLEIKR
notes: as for B3
In experiment [3], B6 registered a Kd of 2.4 nM. Further, the KD ratio in experiment [4] came to 6.4.

B7: R4 variant of anti-IL-6 antibody (clone 44-15) (Fab, V domains shown, not shown: a dimerising Fc or GST)
VH: DVQLQESGPGLVKPSQTVSLTCTVTGISITTGNYRWSWIRQFPGNKLEWIGYIYYSGAITYNPSLTSRTTITRDTSMNQFFLEMISLTAEDTATYYCARDRYDYAVDFWGQGTSVTVSS
VL: DIQMTQSPASLSASVGETVTITCRSSENIYSFLTWFQQRQGKSPHLLVYYANTLAEGVPSRFRGRGRGTRFSLQINSLQPEDFGTYYCQHHYGTPWTFGGGTRLEIKR
notes: Light chain positions 63, 65, 67, 70 (Chothia) changed to Arg; Fab
Molecule B7 gave a Kd in experiment [1] of 8.38 nM. Further, in experiment [2], the KD ratio turned out to be 2.4.

B8: R4 variant of anti-IL-8 antibody (clone 146-1) (Fab, V domains shown, not shown: a dimerising Fc or GST)
VH: EVQLVESGGGLVKPGGSLKLSCAASGFTFSSYAMSWVRQTPEKRLEWVATISNGGSYTYYPDSLKGRFTISRDNAKNTLYLQMSSLRSEDTAIYYCARGITGGVYFDYWGQGTTLTVSS
VL: DIQMTQSPASLSASVGETVTITCRASENIYSYLAWYQQKQGKSPHLLVYDAETLAEGVPSRFRGRGRGTRFSLKINSLQPEDFGSYYCQHHYGTPWTFGGGTKLEIKR
notes: as for B7
In turn, B8 gave a Kd in experiment [3] of 3.14 nM. For the same molecule, the KD ratio in experiment [4] was 4.9.
